Results as given in the supplement of paper PMC12042874.
± gives the uncertainty stated by the source.

Assay: amyloid nucleation score (Sup35N fusion, yeast selection) (log enrichment); library NNK2; higher = more nucleation; inactive = no reads after selection
Summary of the method: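 Random libraries were run with three technical output replicates. In each, psi-negative yeast expressing Sup35N fused to peptides of 20 random codons were induced 24 hours with 100 μM copper sulfate and grown 7 days at 30°C on medium lacking adenine and uracil, and input and output plasmid inserts were Illumina-sequenced. The nucleation score is the DiMSum log enrichment of output over input reads, centred on the mode score of non-aggregating sequences, and sequences under 100 input reads were excluded.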

Row | Substance | amyloid nucleation score
1 | LEVTIMTRFVLMLMTLCFPS | -0.066 ± 0.36
2 | TLTLSTIHWNLY | 6.13 ± 0.066
3 | YRASHCQSFQ | -1.2 ± 1.1
4 | FFAGKCGIMTSLRDLSVAFG | -0.071 ± 0.65
5 | FWLAWLAVRTNHFLAKITD | -0.267 ± 0.28
6 | PYTSSLLLQDRVLARGAYCR | 1.25 ± 0.36
7 | LIYPANVWFGFYAEAGEVAQ | 4.21 ± 0.044
8 | YMFMIRSGFV | -0.376 ± 0.37
9 | VYYWHEYFIDWY | -1.27 ± 1.1
10 | KLFIRWVAWY | 0.113 ± 0.8
11 | RCQLRALRCPFMSTVLRCSY | 0.803 ± 0.28
12 | ISFRFLAFCFFYDKVSLEQK | inactive
13 | TSPRCYRFMIQSMYGLRTRV | 0.883 ± 0.17
14 | VVEICFYW | 6.258 ± 0.034
15 | WSSKGVCYEVLCRFKVLQ | 2.99 ± 0.084
16 | SIVSTGFVRDLNRTRCYSGG | 0.158 ± 0.56
17 | CANYSDARITFTYNSYKICV | 1.09 ± 0.2
18 | YLSWHNFVYRLVYIYSGYFN | inactive
19 | FVIFVMNHLWFFWIVWEDRE | -1.26 ± 1.1
20 | PFNQDMLTIQIGTSIISRSS | -0.172 ± 1.1
21 | DLVYDCKGFCIRLLLG | -1.63 ± 1
22 | PRRYLTIPLSFFLHNSIIGI | inactive
23 | RYRFVIMDDLIIMNAFNSIE | 4.48 ± 0.12
24 | TNDYSFWVLSHTANQPSLME | inactive
25 | HIKLYSDYTCKLMPSLTWQR | 4.8 ± 0.08
26 | KNTVKDGWRMMMDGCMNTHW | 0.259 ± 0.15

Row | Substance | amyloid nucleation score
27 | LYVFLLCNITLTSPLFNLLF | 3.92 ± 0.1
28 | TSVQFCLLICLFRSTGNCAR | 2.1 ± 0.1
29 | VRLLLYWVAVRWRETDCCCS | 0.315 ± 0.48
30 | LMISCSYICSVVDYHLMGGS | 3.55 ± 0.06
31 | IHGFNLSIRKMQKDGSDGQH | 0.635 ± 0.65
32 | GKGNAFVLNFSYGYRCVYHG | 6.398 ± 0.04
33 | VNLSDDCELVYRSCEVLLNY | -1.34 ± 1.1
34 | LQKDYTSMH | inactive
35 | AKVVHTVWACIAS | -0.943 ± 0.78
36 | YRLIYFVVLFEFLSVNR | -0.089 ± 0.79
37 | QFLTLCSKSNVRTCYSHSCN | 2.75 ± 0.19
38 | VLGVLQFVAFWNVVMWISPL | -0.659 ± 0.76
39 | TFKILLRCGNNLFGSKAFDM | 3.63 ± 0.05
40 | GLPSILVYL | -1.31 ± 0.78
41 | IDFQVVWSIFLENSKKHSTR | 0.213 ± 0.8
42 | WDSVRSWKPFPHTSNKWFIL | -0.679 ± 0.48
43 | RSSVWGMRELIERKNTSGAW | 1.49 ± 0.19
44 | RFVFQIVSIYISWMVIDKTR | -0.436 ± 0.78
45 | NFYMSKVVSFKNGCM | 3.3 ± 0.057
46 | LDMSQYYSSRVF | inactive
47 | HRVCLNTIGY | -1.02 ± 0.32
48 | LPWHICLVHPR | 1.81 ± 0.078
49 | RSKQRCGTTDSPLAMVSKRV | 1.05 ± 0.31
50 | HRFSMQALYRNIQEWSCEAW | 2.07 ± 0.12
51 | YLDRGYRGGFPFGKNVWTDG | -1.36 ± 0.78
52 | RCNRSCN | inactive

Row | Substance | amyloid nucleation score
53 | YLVRMRYGAM | 0.763 ± 0.43
54 | KELRQSVVIM | 0.644 ± 0.35
55 | RMSIFPGH | -1.04 ± 1.1
56 | HKKAFVCPRCMVPCRRLWHG | 0.232 ± 0.25
57 | FFYEFFSHICLGQERGWPRV | inactive
58 | SHPDRTIDSGFDTMRDAIWT | 0.22 ± 0.63
59 | YLSVYCFMPVWDKWYRS | -1.57 ± 0.38
60 | SMLDILS | -1.79 ± 0.62
61 | LLKLTYTSM | 7.032 ± 0.037
62 | NLNVIPDCLWFYDSRMLFFI | inactive
63 | KPLNVHELIVSYEYYLLFCQ | inactive
64 | NSNSCAHLTKTRYKSTVRYT | 2.1 ± 0.23
65 | DPRLSSLSCMGRWHHNYHAS | 0.772 ± 0.5
66 | NTALSGDCVRCPSAYEWVKV | 3.25 ± 0.11
67 | SNIVSWVIEDGVRKC | 4.5 ± 0.049
68 | RLMSCMFFNADITAPYWSRY | 6.235 ± 0.036
69 | LLNALCMWMPM | 6.876 ± 0.051
70 | LEVCFWFRNSVTKVSMSACL | -1.06 ± 0.63
71 | HEMVTRQRLVTSRQYLSLGV | 1.11 ± 0.29
72 | THCKGIYLSCMTSDFVHSYY | inactive
73 | YSMLQF | inactive
74 | YCSQAYHAGRRSALEQDSCM | 0.734 ± 0.81
75 | LLFIVCRISLNIVGQVA | -0.137 ± 0.53
76 | IPIYFSHMNRHWIKCYVLVC | -0.913 ± 0.36
77 | ATTVNK | 5.76 ± 0.061
78 | NYHPFLVF | -0.909 ± 0.54

Row | Substance | amyloid nucleation score
79 | DFYACTWKDSCCGHEGRSAC | 0.634 ± 0.43
80 | FFDGSVNQYESRYHGCD | -0.37 ± 0.76
81 | ITFYGTF | inactive
82 | SFLSKSWY | 1.18 ± 0.17
83 | VHRSSLASNGSLES | -0.398 ± 0.45
84 | WMVIHSGADCQCL | 0.605 ± 0.36
85 | QSTMDCT | 0.082 ± 1.1
86 | LGSVYRQGSEGGWATYLNTY | inactive
87 | TFHFQTRLCYLALYDHAIYA | -0.242 ± 0.79
88 | IPSWCFVIYSRNGYGFLHCT | inactive
89 | LGVVWLS | -0.405 ± 0.3
90 | LKGYSQVMRSSIGLWCFRKD | -0.547 ± 0.49
91 | WCGLISASYTLIHSNRFMKL | -1.04 ± 1.1
92 | AWFVYYVYRMFLNVSTSYWK | 0.074 ± 0.74
93 | MRQWEQNSCYDLPAYLWNVG | -0.079 ± 0.56
94 | RDHYCFYRYRKGEFNNTRHP | -0.147 ± 0.39
95 | CLYYEPVSL | -0.263 ± 1.1
96 | FCSGVLQMLLISLDNLGRVS | -0.017 ± 1
97 | FFSTTYNHNSDFAWDQAELY | 0.016 ± 1.1
98 | SNCVCSRIVCCVRMGTGL | 9.908 ± 0.042
99 | ITPVRTVRMLSRMFNMLSQL | 4.83 ± 0.056
100 | PCYGYQR | -0.024 ± 0.65
101 | LASNFGFHGLAADMDALWCY | -1.23 ± 0.78
102 | SSVSRLR | -0.277 ± 0.74
103 | HFTSRLKIRSTIVAVVNVSS | 3.16 ± 0.078
104 | NKYKLNLYMRVIGDQNNPVN | -0.249 ± 1

Row | Substance | amyloid nucleation score
105 | ANPFKSSDATVLVDVRGMGS | 3.09 ± 0.068
106 | LPVQAYAS | inactive
107 | EVHASYVRTSWDVCTWVGHV | 2.29 ± 0.26
108 | SIVFSLW | 1.62 ± 0.14
109 | YVPDVLTMYYGHTFTFDCGR | inactive
110 | LNNGCCMSLPVPTRPDDRDK | 0.356 ± 0.8
111 | IANVWLLQFRKAFEGGLDAG | 7.08 ± 0.079
112 | DVLVINKLHLRWAGFDARGI | 5.05 ± 0.1
113 | GKLAARTAINSLFCKLGRRP | -0.066 ± 0.63
114 | NRELV | -1.67 ± 0.64
115 | VLPEWSLF | inactive
116 | IHFWIMIDHG | -0.771 ± 0.35
117 | LYLVVYIVASGSYACVRRST | 0.546 ± 0.4
118 | SNVQGLACETTGMARGMWSE | 0.597 ± 0.17
119 | IGVWMGCYTSLHCSIKCLEI | 6.36 ± 0.086
120 | MSSHSTCRGVGINGLMVFVL | 8.073 ± 0.057
121 | SEFSNFKSLQPVYH | -0.047 ± 1.1
122 | TELVWLPWTRFCFGRNYRG | 0.101 ± 0.35
123 | LPWLWQLTFPFWA | 0.582 ± 0.37
124 | VTTSTLMYWRGRTGALLAPS | 1.84 ± 0.22
125 | MHMLWETTRWASWCGYLCMG | 4.93 ± 0.059
126 | ILAGSAFCLLCCVKAGWSDE | 6.41 ± 0.086
